The text below walks through data of paper PMC10491607 (Cell Discovery, 2023).

The experiment has as its target T1, Angiotensin-converting enzyme 2 (ACE2) (UniProt Q9BYF1 18-805, glycosylation moieties seen in the map).
T1 construct: source: co-transfected in HEK-293T cells for the current recordings
Kind of experiment: cryo-EM structure; ACE2-SIT1 complex bound to Pro, 3.3 Å overall (transmembrane domain 3.7 Å local). As to conditions: both partners purified.

T1 sequence (Q9BYF1 18-805): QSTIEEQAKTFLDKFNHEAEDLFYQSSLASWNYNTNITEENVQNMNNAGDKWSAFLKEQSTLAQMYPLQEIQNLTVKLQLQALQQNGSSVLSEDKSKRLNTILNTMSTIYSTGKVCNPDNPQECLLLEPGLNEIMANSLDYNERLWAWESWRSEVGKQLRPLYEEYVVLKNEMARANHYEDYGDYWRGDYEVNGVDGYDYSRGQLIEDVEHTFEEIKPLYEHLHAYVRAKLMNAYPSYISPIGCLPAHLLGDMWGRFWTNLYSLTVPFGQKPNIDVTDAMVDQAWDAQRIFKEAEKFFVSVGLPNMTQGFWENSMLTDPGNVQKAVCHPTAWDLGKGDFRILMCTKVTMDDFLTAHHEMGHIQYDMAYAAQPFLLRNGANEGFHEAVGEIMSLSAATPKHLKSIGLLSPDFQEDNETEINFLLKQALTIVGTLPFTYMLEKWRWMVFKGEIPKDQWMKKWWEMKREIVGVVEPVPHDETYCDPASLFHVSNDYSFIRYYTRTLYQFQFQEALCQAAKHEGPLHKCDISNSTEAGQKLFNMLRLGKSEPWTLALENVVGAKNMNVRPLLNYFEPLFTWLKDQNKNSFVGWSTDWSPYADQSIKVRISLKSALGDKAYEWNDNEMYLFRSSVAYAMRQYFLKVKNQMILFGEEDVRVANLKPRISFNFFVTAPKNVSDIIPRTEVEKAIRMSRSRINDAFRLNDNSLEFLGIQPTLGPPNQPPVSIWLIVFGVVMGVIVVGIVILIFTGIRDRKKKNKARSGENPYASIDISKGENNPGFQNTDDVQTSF

B1: SIT1 (SLC6A20) (natural protein)
chain: MEKARPLWANSLQFVFACISYAVGLGNVWRFPYLCQMYGGGSFLVPYIIMLIVEGMPLLYLELAVGQRMRQGSIGAWRTISPYLSGVGVASVVVSFFLSMYYNVINAWAFWYLFHSFQDPLPWSVCPLNGNHTGYDEECEKASSTQYFWYRKTLNISPSLQENGGVQWEPALCLLLAWLVVYLCILRGTESTGKVVYFTASLPYCVLIIYLIRGLTLHGATNGLMYMFTPKIEQLANPKAWINAATQIFFSLGLGFGSLIAFASYNEPSNNCQKHAIIVSLINSFTSIFASIVTFSIYGFKATFNYENCLKKVSLLLTNTFDLEDGFLTASNLEQVKGYLASAYPSKYSEMFPQIKNCSLESELDTAVQGTGLAFIVYTEAIKNMEVSQLWSVLYFFMLLMLGIGSMLGNTAAILTPLTDSKIISSHLPKEAISGLVCLVNCAIGMVFTMEAGNYWFDIFNDYAATLSLLLIVLVETIAVCYVYGLRRFESDLKAMTGRAVSWYWKVMWAGVSPLLIVSLFVFYLSDYILTGTLKYQAWDASQGQLVTKDYPAYALAVIGLLVASSTMCIPLAALGTFVQRRLKRGDADPVA
notes: also called WT; source: co-transfected in HEK-293T cells for the current recordings
On to B1, for which the binding result is “binds”.
